B1: BBS7, in vitro translated, tagged with a 6xMyc epitope [not stated] / GST-SMO^H8 (GST fused to the first 19 amino acids of SMO^Ctail, aa 543–559) [mouse] (parent complex)
chain 1: MDLILNRMDYLQVGVTSQKTMKLIPASRHRATQKVVIGDHDGVVMCFGMKKGEAAAVFKTLPGPKIARLELGGVINTPQEKIFIAAASEIRGFTKRGKQFLSFETNLTESIKAMHISGSDLFLSASYIYNHYCDCKDQHYYLSGDKINDVICLPVERLSRITPVLACQDRVLRVLQGSDVMYAVEVPGPPTVLALHNGNGGDSGEDLLFGTSDGKLALIQITTSKPVRKWEIQNEKKRGGILCIDSFDIVGDGVKDLLVGRDDGMVEVYSFDNANEPVLRFDQMLSESVTSIQGGCVGKDSYDEIVVSTYSGWVTGLTTEPIHKESGPGEELKINQEMQNKISSLRNELEHLQYKVLQERENYQQSSQSSKAKSAVPSFGINDKFTLNKDDASYSLILEVQTAIDNVLIQSDVPIDLLDVDKNSAVVSFSSCDSESNDNFLLATYRCQADTTRLELKIRSIEGQYGTLQAYVTPRIQPKTCQVRQYHIKPLSLHQRTHFIDHDRPMNTLTLTGQFSFAEVHSWVVFCLPEVPEKPPAGECVTFYFQNTFLDTQLESTYRKGEGVFKSDNISTISILKDVLSKEATKRKINLNISYEINEVSVKHTLKLIHPKLEYQLLLAKKVQLIDALKELQIHEGNTNFLIPEYHCILEEADHLQEEYKKQPAHLERLYG
chain 2: KATLLIWRRTWCRLTGH

Variants of: B1
Assay: GST capture assay (pull-down) of in vitro translated Myc-BBS7, quantified from anti-Myc blot; parent: 4.4; read off a plot

Row | Variant | response
1 | chain 2 KATLLIARRTACRLTGH | ~0.28 ‰
2 | chain 2 KATLLIWARTWCRLTGH | ~1.3 ‰
3 | chain 2 KATLLIWARTWARLTGH | ~0.9 ‰
4 | chain 2 KATLLIARRTWCRLTGH | ~0.85 ‰
5 | chain 2 KATLLIWRRTACRLTGH | ~3.6 ‰
6 | chain 2 KATLLIWRRTWARLTGH | ~4.9 ‰
7 | chain 2 KATLLIAARTAARLTGH | ~0.12 ‰

From publication PMC7311171 (2020)
